Source: patent US20210388087A1 (Chugai, published 2021)
Numbering of substitutions follows the chain as printed. One block for each binder: values may come before it.

Molecular target: T1, CD3 epsilon homodimer protein (UniProt P07766 23-126)
T1 construct: also called CD3 (CD3 epsilon)
Assay: SPR, antibody over immobilised CD3e homodimer;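 note: SPR at 25 °C with CD3 epsilon homodimer amine-coupled to a CM4 sensor chip and antibody flowed over as analyte in HBS-EP+ running buffer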

T1 sequence (P07766 23-126): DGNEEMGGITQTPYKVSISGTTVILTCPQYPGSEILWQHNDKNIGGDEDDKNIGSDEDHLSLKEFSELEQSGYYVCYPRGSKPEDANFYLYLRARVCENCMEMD

B1: CE115HA000/GLS3000 G89W (antibody, IgG1, name in Kabat numbering, V domains shown)
VH: QVQLVESGGGVVQPGRSLRLSCAASGFTFSNAWMHWVRQAPGKGLEWVAQIKAKSNNYATYYAESVKGRFTISRDDSKNSLYLQMNSLKTEDTAVYYCRYVHYGAYYGVDAWGQGTTVTVSS
VL: DIVMTQSPLSLPVTPGEPASISCRSSQSLVHSNRNTYLHWYQQKPGQAPRLLIYKVSNRFSGVPDRFSGSGSGTDFTLKISRVEAEDVGVYYCWQGTQVPYTFGQGTKLEIK
notes: one-arm IgG1
- KD ratio to GLS3000: 2.2

B4: CE115HA000/GLS3000 H27dT (antibody, IgG1, name in Kabat numbering, V domains shown)
VH: B1 VH
VL: B1 VL with H31T, W94G
notes: one-arm IgG1
- KD ratio to GLS3000: 13000

B6: CE115HA000/GLS3000 H27dR (antibody, IgG1, name in Kabat numbering, V domains shown)
VH: B1 VH
VL: B1 VL with H31R, W94G
notes: one-arm IgG1
- KD ratio to GLS3000: 2.35

B8: CE115HA000/GLS3000 H27dN (antibody, IgG1, name in Kabat numbering, V domains shown)
VH: B1 VH
VL: B1 VL with H31N, W94G
notes: one-arm IgG1
- KD ratio to GLS3000: 3.43

B11: CE115HA000/GLS3000 H27dP (antibody, IgG1, name in Kabat numbering, V domains shown)
VH: B1 VH
VL: B1 VL with H31P, W94G
notes: one-arm IgG1
- KD ratio to GLS3000: 9.21

B12: CE115HA000/GLS3000 H27dQ (antibody, IgG1, name in Kabat numbering, V domains shown)
VH: B1 VH
VL: B1 VL with H31Q, W94G
notes: one-arm IgG1
- KD ratio to GLS3000: 7.48

B13: CE115HA000/GLS3000 G89Y (antibody, IgG1, name in Kabat numbering, V domains shown)
VH: B1 VH
VL: B1 VL with W94Y
notes: one-arm IgG1
- KD ratio to GLS3000: 1.12

B14: CE115HA000/GLS3000 G91P (antibody, IgG1, name in Kabat numbering, V domains shown)
VH: B1 VH
VL: B1 VL with W94G, G96P
notes: one-arm IgG1
- KD ratio to GLS3000: 23.1

B15: CE115HA000/GLS3000 H27dF (antibody, IgG1, name in Kabat numbering, V domains shown)
VH: B1 VH
VL: B1 VL with H31F, W94G
notes: one-arm IgG1
- KD ratio to GLS3000: 2.05

B17: CE115HA000/GLS3000 H34E (antibody, IgG1, name in Kabat numbering, V domains shown)
VH: B1 VH
VL: B1 VL with H39E, W94G
notes: one-arm IgG1
- KD ratio to GLS3000: 8.03

B18: CE115HA000/GLS3000 G91A (antibody, IgG1, name in Kabat numbering, V domains shown)
VH: B1 VH
VL: B1 VL with W94G, G96A
notes: one-arm IgG1
- KD ratio to GLS3000: 28.1

B19: CE115HA000/GLS3000 H27dE (antibody, IgG1, name in Kabat numbering, V domains shown)
VH: B1 VH
VL: B1 VL with H31E, W94G
notes: one-arm IgG1
- KD ratio to GLS3000: 42.3

B21: CE115HA000/GLS3000 H27dG (antibody, IgG1, name in Kabat numbering, V domains shown)
VH: B1 VH
VL: B1 VL with H31G, W94G
notes: one-arm IgG1
- KD ratio to GLS3000: 3.51

B22: CE115HA000/GLS3000 H27dW (antibody, IgG1, name in Kabat numbering, V domains shown)
VH: B1 VH
VL: B1 VL with H31W, W94G
notes: one-arm IgG1
- KD ratio to GLS3000: 1.86

B24: CE115HA000/GLS3000 H27dS (antibody, IgG1, name in Kabat numbering, V domains shown)
VH: B1 VH
VL: B1 VL with H31S, W94G
notes: one-arm IgG1
- KD ratio to GLS3000: 3.05

B25: CE115HA000/GLS3000 H27dK (antibody, IgG1, name in Kabat numbering, V domains shown)
VH: B1 VH
VL: B1 VL with H31K, W94G
notes: one-arm IgG1
- KD ratio to GLS3000: 3.8

B26: CE115HA000/GLS3000 G91D (antibody, IgG1, name in Kabat numbering, V domains shown)
VH: B1 VH
VL: B1 VL with W94G, G96D
notes: one-arm IgG1
- KD ratio to GLS3000: 44.8

B27: CE115HA000/GLS3000 H34A (antibody, IgG1, name in Kabat numbering, V domains shown)
VH: B1 VH
VL: B1 VL with H39A, W94G
notes: one-arm IgG1
- KD ratio to GLS3000: 1.18

B28: CE115HA000/GLS3000 H34D (antibody, IgG1, name in Kabat numbering, V domains shown)
VH: B1 VH
VL: B1 VL with H39D, W94G
notes: one-arm IgG1
- KD ratio to GLS3000: 2100

B29: CE115HA000/GLS3000 H27dL (antibody, IgG1, name in Kabat numbering, V domains shown)
VH: B1 VH
VL: B1 VL with H31L, W94G
notes: one-arm IgG1
- KD ratio to GLS3000: 3.37

B31: CE115HA000/GLS3000 G91Y (antibody, IgG1, name in Kabat numbering, V domains shown)
VH: B1 VH
VL: B1 VL with W94G, G96Y
notes: one-arm IgG1
- KD ratio to GLS3000: 33.8

B34: CE115HA000/GLS3000 H27dA (antibody, IgG1, name in Kabat numbering, V domains shown)
VH: B1 VH
VL: B1 VL with H31A, W94G
notes: one-arm IgG1
- KD ratio to GLS3000: 2.57

B35: CE115HA000/GLS3000 H27dV (antibody, IgG1, name in Kabat numbering, V domains shown)
VH: B1 VH
VL: B1 VL with H31V, W94G
notes: one-arm IgG1
- KD ratio to GLS3000: 354

B36: CE115HA000/GLS3000 G91E (antibody, IgG1, name in Kabat numbering, V domains shown)
VH: B1 VH
VL: B1 VL with W94G, G96E
notes: one-arm IgG1
- KD ratio to GLS3000: 48.5

B38: CE115HA000/GLS3000 H27dI (antibody, IgG1, name in Kabat numbering, V domains shown)
VH: B1 VH
VL: B1 VL with H31I, W94G
notes: one-arm IgG1
- KD ratio to GLS3000: 7.77

B39: CE115HA000/GLS3000 G91T (antibody, IgG1, name in Kabat numbering, V domains shown)
VH: B1 VH
VL: B1 VL with W94G, G96T
notes: one-arm IgG1
- KD ratio to GLS3000: 39.9

B46: CE115HA000/GLS3000 H27dY (antibody, IgG1, name in Kabat numbering, V domains shown)
VH: B1 VH
VL: B1 VL with H31Y, W94G
notes: one-arm IgG1
- KD ratio to GLS3000: 1.98

B47: CE115HA000/GLS3000 H27dM (antibody, IgG1, name in Kabat numbering, V domains shown)
VH: B1 VH
VL: B1 VL with H31M, W94G
notes: one-arm IgG1
- KD ratio to GLS3000: 3.43

Further lines, results first:

- KD ratio to GLS3000: 2.84
B2: CE115HA000/GLS3000 H34N (antibody, IgG1, name in Kabat numbering, V domains shown)
VH: B1 VH
VL: B1 VL with H39N, W94G
notes: one-arm IgG1

- KD ratio to GLS3000: 1.04
B3: CE115HA000/GLS3000 H34V (antibody, IgG1, name in Kabat numbering, V domains shown)
VH: B1 VH
VL: B1 VL with H39V, W94G
notes: one-arm IgG1

- KD ratio to GLS3000: 59.5
B5: CE115HA000/GLS3000 K50A (antibody, IgG1, name in Kabat numbering, V domains shown)
VH: B1 VH
VL: B1 VL with K55A, W94G
notes: one-arm IgG1

- KD ratio to GLS3000: 3.5
B7: CE115HA000/GLS3000 H34F (antibody, IgG1, name in Kabat numbering, V domains shown)
VH: B1 VH
VL: B1 VL with H39F, W94G
notes: one-arm IgG1

- KD ratio to GLS3000: 8.45
B9: CE115HA000/GLS3000 H34W (antibody, IgG1, name in Kabat numbering, V domains shown)
VH: B1 VH
VL: B1 VL with H39W, W94G
notes: one-arm IgG1

- KD ratio to GLS3000: 36.4
B10: CE115HA000/GLS3000 K50L (antibody, IgG1, name in Kabat numbering, V domains shown)
VH: B1 VH
VL: B1 VL with K55L, W94G
notes: one-arm IgG1

- KD ratio to GLS3000: 4.6
B16: CE115HA000/GLS3000 H34Q (antibody, IgG1, name in Kabat numbering, V domains shown)
VH: B1 VH
VL: B1 VL with H39Q, W94G
notes: one-arm IgG1

- KD ratio to GLS3000: 57.2
B20: CE115HA000/GLS3000 K50E (antibody, IgG1, name in Kabat numbering, V domains shown)
VH: B1 VH
VL: B1 VL with K55E, W94G
notes: one-arm IgG1

- KD ratio to GLS3000: 1.1
B23: CE115HA000/GLS3000 H34T (antibody, IgG1, name in Kabat numbering, V domains shown)
VH: B1 VH
VL: B1 VL with H39T, W94G
notes: one-arm IgG1

- KD ratio to GLS3000: 0.89
B30: CE115HA000/GLS3000 H34I (antibody, IgG1, name in Kabat numbering, V domains shown)
VH: B1 VH
VL: B1 VL with H39I, W94G
notes: one-arm IgG1

- KD ratio to GLS3000: 4.1
B32: CE115HA000/GLS3000 H34K (antibody, IgG1, name in Kabat numbering, V domains shown)
VH: B1 VH
VL: B1 VL with H39K, W94G
notes: one-arm IgG1

- KD ratio to GLS3000: 2.44
B33: CE115HA000/GLS3000 H34Y (antibody, IgG1, name in Kabat numbering, V domains shown)
VH: B1 VH
VL: B1 VL with H39Y, W94G
notes: one-arm IgG1

- KD ratio to GLS3000: 1.03
B37: CE115HA000/GLS3000 H34L (antibody, IgG1, name in Kabat numbering, V domains shown)
VH: B1 VH
VL: B1 VL with H39L, W94G
notes: one-arm IgG1

- KD ratio to GLS3000: 1.22
B40: CE115HA000/GLS3000 H34P (antibody, IgG1, name in Kabat numbering, V domains shown)
VH: B1 VH
VL: B1 VL with H39P, W94G
notes: one-arm IgG1

- KD ratio to GLS3000: 1.24
B41: CE115HA000/GLS3000 H34S (antibody, IgG1, name in Kabat numbering, V domains shown)
VH: B1 VH
VL: B1 VL with H39S, W94G
notes: one-arm IgG1

- KD ratio to GLS3000: 1.08
B42: CE115HA000/GLS3000 H34G (antibody, IgG1, name in Kabat numbering, V domains shown)
VH: B1 VH
VL: B1 VL with H39G, W94G
notes: one-arm IgG1

- KD ratio to GLS3000: 3.16
B43: CE115HA000/GLS3000 H34M (antibody, IgG1, name in Kabat numbering, V domains shown)
VH: B1 VH
VL: B1 VL with H39M, W94G
notes: one-arm IgG1

- KD ratio to GLS3000: 42.4
B44: CE115HA000/GLS3000 K50G (antibody, IgG1, name in Kabat numbering, V domains shown)
VH: B1 VH
VL: B1 VL with K55G, W94G
notes: one-arm IgG1

- KD ratio to GLS3000: 114
B45: CE115HA000/GLS3000 K50D (antibody, IgG1, name in Kabat numbering, V domains shown)
VH: B1 VH
VL: B1 VL with K55D, W94G
notes: one-arm IgG1
